Assay results from US9555076B2, “Neuregulin based methods and compositions for treating cardiovascular diseases” (Zensun (Shanghai) Science & Technology, Co., Ltd., priority 2002, dated 2017).
“And” between values parts separate entries of the source, which are not always exact repeats. Identical values can stand only once. Marks after values point to notes of the source that are not given here.

Test system: acute myocardial injury caused by viral (Coxsackie B3) infection in mice
Experiment: Survival of mice infected with Coxsackie B3 virus
Type: in vivo, BALB/C mice
Settings: for relative survival rate: mice
Experimental: 0.2 ml of 100×TCID50 CVB3 provided by Zhong Shan Hospital affiliated to Fudan University was injected intra-abdominally and established myocarditis model. Within the following week, the mouse manifested pilo-erection, depilation, emaciation, dullness and death, about half of the tested animals died at the 8th day.
Intravenous injection of the testing drug into the tail vein was carried out the same day of intra-abdominal viral infection in mice, the injection was performed for consecutive 5 days, animal survival rate was monitored, after completion of the experiment, echocardiograph, myocardial pathologic examination, serum troponin determination were carried out.
The death status of model animals in various testing drug group was monitored.
• Normal mice control group, model group and testing drug group were set up; • Normal mice control group (n=10); • Model group (n=20): Prepared buffer solution was injected; • Testing drug group (n=20): […] courses with 20 animals assigned for each group; • Placebo control group (n=20): Intra-abdominal injection of non-CVB3 freeze-thaw cellular supernatant, 0.2 ml/animal. 10.2 Dosage Set Up, Preparation of Testing Drug, Route of Drug Administration, Times of Drug Administration, Concentration and Volume of the Testing Drug • rhNRG-1β was diluted with preparation buffer solution (10 mM PB, 0.2% human serum albumin, 5% mannitol to needed concentration; • Three drug administration groups were set up, intravenous injection for consecutive 3-day, 5-day and 7-day, drug volume for each dose was 0.2 ml/animal; • Drug administration of the model group was intravenous injection into the tail vein of mice, once every day (qd), for consecutive 7 days, drug volume for each dose was 0.2 ml/animal. 7.3 Method of the Experiment 7.3.1 Set Up of Acute Viral Myocariditis Animal Model in Mice

B1: rhNRG-1 β: Recombinant human neuregulin fragment of 61 amino acid (SEQ ID NO:4), 3 disulfide bonds, expressed in E. coli (protein, listed as Homo sapiens)
chain: SHLVKCAEKEKTFCVNGGECFMVKDLSNPSRYLCKCPNEFTGDRCQNYVMASFYKAEELYQ
modifications: disulfide (positions not given here)
Mice n = 20, 30 μg/kg iv qd × 7, 7th day, (II)
  Number of survival animals: 18
Mice n = 20, 30 μg/kg iv qd × 7, killed, (I)
  Number of survival animal: 17*
Mice n = 20, 30 μg/kg iv qd × 7, killed, (II)
  Number of survival animals: 18*
5 μg/kg (so in the source) iv qd × 5, 1st day, (I)
  relative survival rate: 100%
5 μg/kg (so in the source) iv qd × 5, 2nd day, (I)
  relative survival rate: 100%
5 μg/kg (so in the source) iv qd × 5, 3rd day, (I)
  relative survival rate: 100%
5 μg/kg (so in the source) iv qd × 5, 4th day, (I)
  relative survival rate: 95%
5 μg/kg (so in the source) iv qd × 5, 5th day, (I)
  relative survival rate: 90%
5 μg/kg (so in the source) iv qd × 5, 6th day, (I)
  relative survival rate: 75%
5 μg/kg (so in the source) iv qd × 5, 7th day, (I)
  relative survival rate: 65%
5 μg/kg (so in the source) iv qd × 5, killed, (I)
  relative survival rate: 50%
7.5 μg/kg iv qd × 5, 1st day, (II)
  relative survival rate: 100%
7.5 μg/kg iv qd × 5, 2nd day, (II)
  relative survival rate: 100%
7.5 μg/kg iv qd × 5, 3rd day, (II)
  relative survival rate: 100%
7.5 μg/kg iv qd × 5, 4th day, (II)
  relative survival rate: 90%
7.5 μg/kg iv qd × 5, 5th day, (II)
  relative survival rate: 85%
7.5 μg/kg iv qd × 5, 6th day, (II)
  relative survival rate: 70%
7.5 μg/kg iv qd × 5, 7th day, (II)
  relative survival rate: 55%
7.5 μg/kg iv qd × 5, killed, (II)
  relative survival rate: 50%
15 μg/kg iv qd × 5, 1st day, (I)
  relative survival rate: 100%
15 μg/kg iv qd × 5, 1st day, (II)
  relative survival rate: 100%
15 μg/kg iv qd × 5, 2nd day, (I)
  relative survival rate: 100%
15 μg/kg iv qd × 5, 2nd day, (II)
  relative survival rate: 100%
15 μg/kg iv qd × 5, 3rd day, (I)
  relative survival rate: 100%
15 μg/kg iv qd × 5, 3rd day, (II)
  relative survival rate: 100%
15 μg/kg iv qd × 5, 4th day, (I)
  relative survival rate: 100%
15 μg/kg iv qd × 5, 4th day, (II)
  relative survival rate: 95%
15 μg/kg iv qd × 5, 5th day, (I)
  relative survival rate: 95%
15 μg/kg iv qd × 5, 5th day, (II)
  relative survival rate: 90%
15 μg/kg iv qd × 5, 6th day, (I)
  relative survival rate: 85%
15 μg/kg iv qd × 5, 6th day, (II)
  relative survival rate: 80%
15 μg/kg iv qd × 5, 7th day, (I)
  relative survival rate: 70%
15 μg/kg iv qd × 5, 7th day, (II)
  relative survival rate: 65%
15 μg/kg iv qd × 5, killed, (I)
  relative survival rate: 65%
15 μg/kg iv qd × 5, killed, (II)
  relative survival rate: 65%
30 μg/kg iv qd × 3, 1st day, (I)
  relative survival rate: 100%
30 μg/kg iv qd × 3, 1st day, (II)
  relative survival rate: 100%
30 μg/kg iv qd × 3, 2nd day, (I)
  relative survival rate: 100%
30 μg/kg iv qd × 3, 2nd day, (II)
  relative survival rate: 100%
30 μg/kg iv qd × 3, 3rd day, (I)
  relative survival rate: 100%
30 μg/kg iv qd × 3, 3rd day, (II)
  relative survival rate: 100%
30 μg/kg iv qd × 3, 4th day, (I)
  relative survival rate: 95%
30 μg/kg iv qd × 3, 4th day, (II)
  relative survival rate: 100%
30 μg/kg iv qd × 3, 5th day, (I)
  relative survival rate: 90%
30 μg/kg iv qd × 3, 5th day, (II)
  relative survival rate: 95%
30 μg/kg iv qd × 3, 6th day, (I)
  relative survival rate: 80%
30 μg/kg iv qd × 3, 6th day, (II)
  relative survival rate: 80%
30 μg/kg iv qd × 3, 7th day, (I)
  relative survival rate: 70%
30 μg/kg iv qd × 3, 7th day, (II)
  relative survival rate: 75%
30 μg/kg iv qd × 3, killed, (I)
  relative survival rate: 65%
30 μg/kg iv qd × 3, killed, (II)
  relative survival rate: 75%
30 μg/kg iv qd × 5, 1st day, (I)
  relative survival rate: 100%
30 μg/kg iv qd × 5, 1st day, (II)
  relative survival rate: 100%
30 μg/kg iv qd × 5, 1st day, Example 5 (I)
  relative survival rate: 100%
30 μg/kg iv qd × 5, 1st day, Example 5 (II)
  relative survival rate: 100%
30 μg/kg iv qd × 5, 2nd day, (I)
  relative survival rate: 100%
30 μg/kg iv qd × 5, 2nd day, (II)
  relative survival rate: 100%
30 μg/kg iv qd × 5, 2nd day, Example 5 (I)
  relative survival rate: 100%
30 μg/kg iv qd × 5, 2nd day, Example 5 (II)
  relative survival rate: 100%
30 μg/kg iv qd × 5, 3rd day, (I)
  relative survival rate: 100%
30 μg/kg iv qd × 5, 3rd day, (II)
  relative survival rate: 100%
30 μg/kg iv qd × 5, 3rd day, Example 5 (I)
  relative survival rate: 100%
30 μg/kg iv qd × 5, 3rd day, Example 5 (II)
  relative survival rate: 100%
30 μg/kg iv qd × 5, 4th day, (I)
  relative survival rate: 100%
30 μg/kg iv qd × 5, 4th day, (II)
  relative survival rate: 100%
30 μg/kg iv qd × 5, 4th day, Example 5 (I)
  relative survival rate: 100%
30 μg/kg iv qd × 5, 4th day, Example 5 (II)
  relative survival rate: 100%
30 μg/kg iv qd × 5, 5th day, (I)
  relative survival rate: 100%
30 μg/kg iv qd × 5, 5th day, (II)
  relative survival rate: 95%
30 μg/kg iv qd × 5, 5th day, Example 5 (I)
  relative survival rate: 95%
30 μg/kg iv qd × 5, 5th day, Example 5 (II)
  relative survival rate: 95%
30 μg/kg iv qd × 5, 6th day, (I)
  relative survival rate: 90%
30 μg/kg iv qd × 5, 6th day, (II)
  relative survival rate: 90%
30 μg/kg iv qd × 5, 6th day, Example 5 (I)
  relative survival rate: 95%
30 μg/kg iv qd × 5, 6th day, Example 5 (II)
  relative survival rate: 95%
30 μg/kg iv qd × 5, 7th day, (I)
  relative survival rate: 85%
30 μg/kg iv qd × 5, 7th day, (II)
  relative survival rate: 85%
30 μg/kg iv qd × 5, 7th day, Example 5 (I)
  relative survival rate: 90%
30 μg/kg iv qd × 5, 7th day, Example 5 (II)
  relative survival rate: 90%
30 μg/kg iv qd × 5, killed, (I)
  relative survival rate: 80%
30 μg/kg iv qd × 5, killed, (II)
  relative survival rate: 85%
30 μg/kg iv qd × 5, killed, Example 5 (I)
  relative survival rate: 85%
30 μg/kg iv qd × 5, killed, Example 5 (II)
  relative survival rate: 80% and 90%
30 μg/kg iv qd × 7, 1st day, (I)
  relative survival rate: 100%
30 μg/kg iv qd × 7, 1st day, (II)
  relative survival rate: 100%
30 μg/kg iv qd × 7, 2nd day, (I)
  relative survival rate: 100%
30 μg/kg iv qd × 7, 2nd day, (II)
  relative survival rate: 100%
30 μg/kg iv qd × 7, 3rd day, (I)
  relative survival rate: 100%
30 μg/kg iv qd × 7, 4th day, (I)
  relative survival rate: 100%
30 μg/kg iv qd × 7, 5th day, (I)
  relative survival rate: 100%
30 μg/kg iv qd × 7, 6th day, (I)
  relative survival rate: 90%
30 μg/kg iv qd × 7, 7th day, (I)
  relative survival rate: 90%
30 μg/kg iv qd × 7, killed, (I)
  relative survival rate: 85%
30 μg/kg iv qd × 7, killed, (II)
  relative survival rate: 80%
